This data set concerns T1, BaeR (Erwinia amylovora Ea1189 (primers from CFBP1430 genome)), ORF:3df56c72.
T1 sequence: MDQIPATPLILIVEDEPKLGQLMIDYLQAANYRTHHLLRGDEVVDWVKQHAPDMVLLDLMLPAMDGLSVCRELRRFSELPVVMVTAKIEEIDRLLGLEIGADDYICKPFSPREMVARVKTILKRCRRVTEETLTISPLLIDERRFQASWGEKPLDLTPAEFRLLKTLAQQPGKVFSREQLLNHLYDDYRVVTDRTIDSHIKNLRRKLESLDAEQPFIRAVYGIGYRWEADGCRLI
Put plainly: EMSA. The conditions noted are these: 50 mM Tris-HCl pH 7.5, 1 mM DTT, 500 mM MgCl2, 100 mM EDTA, 10 mM NaCl ([…], room temperature 30 min. (In general: A gel shift assay detects complexes by their altered migration in electrophoresis.)

Consider “TGGCTGGCAACACTGAAGCCGCCCAGGCTCAGGCCGATGAGTAAAGGGAGCAGTTTGTTCATTTGCATTCCTTGTAGTGCAGCAAAATTGTTATGGTAGCGTTGACGCAGACCAAAAATTGTCGCCGATGATAGCAGAGACTCCGGATCAGGTAAGTTGGCTGAAAGTGCCATCCTCCTTTTAATTTACTTAAATACTTCATCAAGAACCAGACATCCGGCTGATTACTATTGAACTAAACGTTTTCGCCATTATTTCAGGAGATACAGTGATGACCGCAGTGACCAATTA (double strand) [tolC upstream region (291 bp)]”, for which the binding result was “no binding”.

As for “TGTTTGGTATTTCGTGCCATAGCGGTATGATTTACAACGCTTCAGACTTACATACATTTGCGAATGTATGTACTATAGCACGACTAAAATTTAAACGCAGCAGTGGGTTTGTAATCCATTGAACAATCGATATCGGACATTCGAGGTTTATTTATGAACAAAAACAGAGGGTTAACGCCTCTGGCGGCCGTTCTGATGCTTTCAG (double strand) [acrAB upstream region (205 bp)]”, the binding entry is listed as “binds more weakly”.

The values are drawn from PMC3915751.
